{"source": "paper doi:10.1101/2021.04.02.438172", "key": {"[1]": {"target": "Sandercyanin His-108-Ala (Stizostedion vitreum (formerly Sander vitreus), walleye)"}, "[2]": {"target": "Sandercyanin Phe-106-Ala (Stizostedion vitreum (formerly Sander vitreus), walleye)"}, "[3]": {"target": "Sandercyanin Tyr-142-Ala (Y142A) (Stizostedion vitreum (formerly Sander vitreus), walleye)"}, "[4]": {"target": "wild-type Sandercyanin (Stizostedion vitreum (formerly Sander vitreus), walleye)", "assay": "SEC"}}}
{"substance": "Sandercyanin His-108-Ala (natural protein)", "values": [{"measurement": "stoichiometry N", "setting": "[1]", "value": 4}]}
{"substance": "Sandercyanin Phe-106-Ala (natural protein)", "values": [{"measurement": "stoichiometry N", "setting": "[2]", "value": 4}]}
{"substance": "Sandercyanin Tyr-142-Ala (Y142A) (natural protein)", "values": [{"measurement": "stoichiometry N", "setting": "[3]", "value": 4}]}
{"substance": "wild-type Sandercyanin (natural protein)", "values": [{"measurement": "stoichiometry N", "setting": "[4]", "value": 4}]}
